Laboratory results as given in doi:10.1101/2025.10.01.679806 (bioRxiv, 2025).
Values joined by “and” are separate entries in the source; they are usually repeats but may differ in a detail not shown here. Identical values can stand only once.

Tests used:
[1] = molecular target: Bpa 31-146 (Mycobacterium tuberculosis) (UniProt P9WKX3); experiment: NMR CPMG relaxation dispersion
[2] = molecular target: Bpa 31-146 (Mycobacterium tuberculosis) (UniProt P9WKX3); experiment: NMR titration
native MS = molecular target: the molecule itself; experiment: native MS
[3] = molecular target: the molecule itself; experiment: NMR pulsed-field gradient diffusion
methyl-TROSY NMR = molecular target: the molecule itself; experiment: methyl-TROSY NMR

## DNA-binding domain of human telomeric repeat-binding factor 1 (residues 378-430) (domain or fragment)
[1]
  exchange rate between Bpa free and bound with hTRF1 (CPMG): > 1500 s⁻¹
[2]
  Kd: < 0.2 µM and 1.5 µM
  stoichiometry N (hTRF1 molecules per Bpa dodecamer): 3

B1: wild-type (WT) Mycobacterium tuberculosis bacterial proteasome activator Bpa (Rv3780) (natural protein)
chain: MVIGLSTGSDDDDVEVIGGVDPRLIAVQENDSDESSLTDLVEQPAKVMRIGTMIKQLLEEVRAAPLDEASRNRLRDIHATSIRELEDGLAPELREELDRLTLPFNEDAVPSDAELRIAQAQLVGWLEGLFHGIQTALFAQQMAARAQLQQMRQGALPPGVGKSGQHGHGTGQYL
Native MS
  stoichiometry N: 2
[3]
  stoichiometry N: 4

B2: Bpa 31-146 (domain or fragment)
chain: DSDESSLTDLVEQPAKVMRIGTMIKQLLEEVRAAPLDEASRNRLRDIHATSIRELEDGLAPELREELDRLTLPFNEDAVPSDAELRIAQAQLVGWLEGLFHGIQTALFAQQMAARA
methyl-TROSY NMR
  stoichiometry N: 12
